Measurements from patent US8969060B2, “Modified glucose dehydrogenase” (Ikeda Food Research Co., Ltd., priority 2011, dated 2015).

Experiments:
[1] = Relative enzymatic activity of GLD (DCIP/1-m-PMS, plate reader, yeast culture supernatant) with 1,10-phenanthroline present; type: biochemical; conditions: site-specific mutants, inhibitor final concentration 1 mM
In short: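 Inhibitor at 1 mM final substitutes for the methanol in the reagent, and the sample rate is expressed as % of the inhibitor-free blank. Rates come from ΔA600/min of DCIP with glucose and 1-m-PMS at pH 7.0, using supernatants of YPD-grown yeast clones (24 h, 30° C.).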

[2] = Relative enzymatic activity of GLD (DCIP/1-m-PMS, plate reader, yeast culture supernatant) with proflavin hydrochloride present; type: biochemical; conditions: site-specific mutants, inhibitor final concentration 1 mM
Procedure: The susceptibility defined in the present specification is evaluated in terms of a relative activity that is determined in a system wherein the inhibitor coexists or not. The relative activity is derived from a relative value (%) of an enzymatic activity (a sample value) obtained with the addition of the inhibitor in the determination of the enzymatic activity described in the present specification as compared with an enzymatic activity (a blank value) as “100%” obtained without the addition of the inhibitor in the same determination. Thus, the higher the relative activity is, the less the susceptibility to the inhibitor is (or the more the susceptibility to the inhibitor is reduced), vice versa.
The enzymatic activity is determined in the following manner in Examples 3 and 6 wherein a plate reader (Japan Molecular Device Corporation, SpectraMax Plus384) is used. Thus, culture supernatant that had been diluted in advance with an appropriate magnification is added to a 96-well microplate with an amount of 100 μl per well. A reagent for the determination of the enzymatic activity comprising phosphate buffer (pH 7.0), 1.0 M D-glucose, 3 mM DCIP, 3 mM 1-m-PMS and methanol with a volume ratio of 0.1:1:0.14:0.2:0.06 is added to the 96-well microplate with an amount of 100 μl per well, and a change in the absorbance of DCIP at 600 nm (ΔABS/min) is then determined. The enzymatic activity can be calculated by conversion in proportion to a change in the absorbance of an enzyme solution for which the enzymatic activity has already been known by the above-mentioned activity determination procedure using the spectrophotometer.
In the following examples, a value of the enzymatic activity determined by the spectrometer or plate reader using the above reagent composition is considered as a blank value. On the other hand, a sample value is determined using a methanol solution comprising the inhibitor such as 1,10-phenanthroline or proflavin hydrochloride at a final concentration of 1 mM instead of the methanol. Enzymatic activity (unit/mL)=(−ΔABS/16.3)×3.0/0.05×(Dilution ratio of enzyme) [Equation 1]

Molecule	Relative Activity [%] 1,10-Phenanthroline [1] [%]	Relative Activity [%] Proflavin hydrochloride [2] [%]
D343F: modified GLD: SEQ ID NO: 1 with substitution D343F (protein, listed as Aspergillus terreus, SIGNAL (1)..(19)) MLGKLSFLSALSLAVAAPLSNSTSAKYDYIVIGGGTSGLAVANRLSEDPNVNVLILEAGGSVWNNPNVTNVDGYGLAFGSDIDWQYQSVNQPYGGNLSQVLRAGKALGGTSTINGMAYTRAEDVQIDAWETIGNTGWTWKNLFPYYRKSENFTVPTKSQTSLGASYEAGAHGHEGPLDVAFTQIESNNLTTYLNRTFQGMGLPWTEDVNGGKMRGFNLYPSTVNLEEYVREDAARAYYWPYKSRPNLHVLLNTFANRIVWDGEAHDGHITASGVEITSRNGTVRVINAEKEVIVSAGALKSPAILELSGIGNPSVLDKHNIPVKVNLPTVGENLQDQVNSHMFASGNTSISGTKAVSYPDVYDVFGDEAESVAKQIRANLKQYAADTAKANGNIMKAADLERLFEVQYDLIFKGRVPIAEVLNYPGSATSVFAEFWALLPFARGSVHIGSSNPAEFPVINPNYFMLDWDAKSYVAVAKYIRRSFESYPLSSIVKESTPGYDVIPRNASEQSWKEWVFDKNYRSNFHPVGTAAMMPREIGGVVDERLNVYGTTNVRVVDASVLPFQVCGHLVSTLYAVAERAADLIKADAGRR	95.3	65.7
D343K: modified GLD: SEQ ID NO: 1 with substitution D343K (protein, listed as Aspergillus terreus, SIGNAL (1)..(19)) MLGKLSFLSALSLAVAAPLSNSTSAKYDYIVIGGGTSGLAVANRLSEDPNVNVLILEAGGSVWNNPNVTNVDGYGLAFGSDIDWQYQSVNQPYGGNLSQVLRAGKALGGTSTINGMAYTRAEDVQIDAWETIGNTGWTWKNLFPYYRKSENFTVPTKSQTSLGASYEAGAHGHEGPLDVAFTQIESNNLTTYLNRTFQGMGLPWTEDVNGGKMRGFNLYPSTVNLEEYVREDAARAYYWPYKSRPNLHVLLNTFANRIVWDGEAHDGHITASGVEITSRNGTVRVINAEKEVIVSAGALKSPAILELSGIGNPSVLDKHNIPVKVNLPTVGENLQDQVNSHMKASGNTSISGTKAVSYPDVYDVFGDEAESVAKQIRANLKQYAADTAKANGNIMKAADLERLFEVQYDLIFKGRVPIAEVLNYPGSATSVFAEFWALLPFARGSVHIGSSNPAEFPVINPNYFMLDWDAKSYVAVAKYIRRSFESYPLSSIVKESTPGYDVIPRNASEQSWKEWVFDKNYRSNFHPVGTAAMMPREIGGVVDERLNVYGTTNVRVVDASVLPFQVCGHLVSTLYAVAERAADLIKADAGRR	95.9	51.8
D343M: modified GLD: SEQ ID NO: 1 with substitution D343M (protein, listed as Aspergillus terreus, SIGNAL (1)..(19)) MLGKLSFLSALSLAVAAPLSNSTSAKYDYIVIGGGTSGLAVANRLSEDPNVNVLILEAGGSVWNNPNVTNVDGYGLAFGSDIDWQYQSVNQPYGGNLSQVLRAGKALGGTSTINGMAYTRAEDVQIDAWETIGNTGWTWKNLFPYYRKSENFTVPTKSQTSLGASYEAGAHGHEGPLDVAFTQIESNNLTTYLNRTFQGMGLPWTEDVNGGKMRGFNLYPSTVNLEEYVREDAARAYYWPYKSRPNLHVLLNTFANRIVWDGEAHDGHITASGVEITSRNGTVRVINAEKEVIVSAGALKSPAILELSGIGNPSVLDKHNIPVKVNLPTVGENLQDQVNSHMMASGNTSISGTKAVSYPDVYDVFGDEAESVAKQIRANLKQYAADTAKANGNIMKAADLERLFEVQYDLIFKGRVPIAEVLNYPGSATSVFAEFWALLPFARGSVHIGSSNPAEFPVINPNYFMLDWDAKSYVAVAKYIRRSFESYPLSSIVKESTPGYDVIPRNASEQSWKEWVFDKNYRSNFHPVGTAAMMPREIGGVVDERLNVYGTTNVRVVDASVLPFQVCGHLVSTLYAVAERAADLIKADAGRR	91.2	52.9
D343L: modified GLD: SEQ ID NO: 1 with substitution D343L (protein, listed as Aspergillus terreus, SIGNAL (1)..(19)) MLGKLSFLSALSLAVAAPLSNSTSAKYDYIVIGGGTSGLAVANRLSEDPNVNVLILEAGGSVWNNPNVTNVDGYGLAFGSDIDWQYQSVNQPYGGNLSQVLRAGKALGGTSTINGMAYTRAEDVQIDAWETIGNTGWTWKNLFPYYRKSENFTVPTKSQTSLGASYEAGAHGHEGPLDVAFTQIESNNLTTYLNRTFQGMGLPWTEDVNGGKMRGFNLYPSTVNLEEYVREDAARAYYWPYKSRPNLHVLLNTFANRIVWDGEAHDGHITASGVEITSRNGTVRVINAEKEVIVSAGALKSPAILELSGIGNPSVLDKHNIPVKVNLPTVGENLQDQVNSHMLASGNTSISGTKAVSYPDVYDVFGDEAESVAKQIRANLKQYAADTAKANGNIMKAADLERLFEVQYDLIFKGRVPIAEVLNYPGSATSVFAEFWALLPFARGSVHIGSSNPAEFPVINPNYFMLDWDAKSYVAVAKYIRRSFESYPLSSIVKESTPGYDVIPRNASEQSWKEWVFDKNYRSNFHPVGTAAMMPREIGGVVDERLNVYGTTNVRVVDASVLPFQVCGHLVSTLYAVAERAADLIKADAGRR	100.5	73.2
D343I: modified GLD: SEQ ID NO: 1 with substitution D343I (protein, listed as Aspergillus terreus, SIGNAL (1)..(19)) MLGKLSFLSALSLAVAAPLSNSTSAKYDYIVIGGGTSGLAVANRLSEDPNVNVLILEAGGSVWNNPNVTNVDGYGLAFGSDIDWQYQSVNQPYGGNLSQVLRAGKALGGTSTINGMAYTRAEDVQIDAWETIGNTGWTWKNLFPYYRKSENFTVPTKSQTSLGASYEAGAHGHEGPLDVAFTQIESNNLTTYLNRTFQGMGLPWTEDVNGGKMRGFNLYPSTVNLEEYVREDAARAYYWPYKSRPNLHVLLNTFANRIVWDGEAHDGHITASGVEITSRNGTVRVINAEKEVIVSAGALKSPAILELSGIGNPSVLDKHNIPVKVNLPTVGENLQDQVNSHMIASGNTSISGTKAVSYPDVYDVFGDEAESVAKQIRANLKQYAADTAKANGNIMKAADLERLFEVQYDLIFKGRVPIAEVLNYPGSATSVFAEFWALLPFARGSVHIGSSNPAEFPVINPNYFMLDWDAKSYVAVAKYIRRSFESYPLSSIVKESTPGYDVIPRNASEQSWKEWVFDKNYRSNFHPVGTAAMMPREIGGVVDERLNVYGTTNVRVVDASVLPFQVCGHLVSTLYAVAERAADLIKADAGRR	88.6	71.5
D343H: modified GLD: SEQ ID NO: 1 with substitution D343H (protein, listed as Aspergillus terreus, SIGNAL (1)..(19)) MLGKLSFLSALSLAVAAPLSNSTSAKYDYIVIGGGTSGLAVANRLSEDPNVNVLILEAGGSVWNNPNVTNVDGYGLAFGSDIDWQYQSVNQPYGGNLSQVLRAGKALGGTSTINGMAYTRAEDVQIDAWETIGNTGWTWKNLFPYYRKSENFTVPTKSQTSLGASYEAGAHGHEGPLDVAFTQIESNNLTTYLNRTFQGMGLPWTEDVNGGKMRGFNLYPSTVNLEEYVREDAARAYYWPYKSRPNLHVLLNTFANRIVWDGEAHDGHITASGVEITSRNGTVRVINAEKEVIVSAGALKSPAILELSGIGNPSVLDKHNIPVKVNLPTVGENLQDQVNSHMHASGNTSISGTKAVSYPDVYDVFGDEAESVAKQIRANLKQYAADTAKANGNIMKAADLERLFEVQYDLIFKGRVPIAEVLNYPGSATSVFAEFWALLPFARGSVHIGSSNPAEFPVINPNYFMLDWDAKSYVAVAKYIRRSFESYPLSSIVKESTPGYDVIPRNASEQSWKEWVFDKNYRSNFHPVGTAAMMPREIGGVVDERLNVYGTTNVRVVDASVLPFQVCGHLVSTLYAVAERAADLIKADAGRR	87.5	62.8
D343Q: modified GLD: SEQ ID NO: 1 with substitution D343Q (protein, listed as Aspergillus terreus, SIGNAL (1)..(19)) MLGKLSFLSALSLAVAAPLSNSTSAKYDYIVIGGGTSGLAVANRLSEDPNVNVLILEAGGSVWNNPNVTNVDGYGLAFGSDIDWQYQSVNQPYGGNLSQVLRAGKALGGTSTINGMAYTRAEDVQIDAWETIGNTGWTWKNLFPYYRKSENFTVPTKSQTSLGASYEAGAHGHEGPLDVAFTQIESNNLTTYLNRTFQGMGLPWTEDVNGGKMRGFNLYPSTVNLEEYVREDAARAYYWPYKSRPNLHVLLNTFANRIVWDGEAHDGHITASGVEITSRNGTVRVINAEKEVIVSAGALKSPAILELSGIGNPSVLDKHNIPVKVNLPTVGENLQDQVNSHMQASGNTSISGTKAVSYPDVYDVFGDEAESVAKQIRANLKQYAADTAKANGNIMKAADLERLFEVQYDLIFKGRVPIAEVLNYPGSATSVFAEFWALLPFARGSVHIGSSNPAEFPVINPNYFMLDWDAKSYVAVAKYIRRSFESYPLSSIVKESTPGYDVIPRNASEQSWKEWVFDKNYRSNFHPVGTAAMMPREIGGVVDERLNVYGTTNVRVVDASVLPFQVCGHLVSTLYAVAERAADLIKADAGRR	86.2	47.0
